Assay results as given in publication PMC11063069.

Molecular target: His-tagged human CD47 protein (human) (UniProt Q08722)
Assay: pull-down

Chain of UniProt Q08722 (Q08722 19-139): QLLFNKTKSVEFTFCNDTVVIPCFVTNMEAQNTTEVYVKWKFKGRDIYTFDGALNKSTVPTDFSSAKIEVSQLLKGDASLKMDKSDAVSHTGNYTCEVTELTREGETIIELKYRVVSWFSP

fibronectin-binding protein B (FnBP B) of S. aureus laboratory strain 8325-4 (from UniProt A0A0H2XKG3 37-940) (natural protein)
percent of bacterial colonies precipitated in the pellets with recombinant hCD47: 83.2%
